Measured values reported in patent US20240368242A1 (SHATTUCK LABS, published 2024).
Each block holds one binder with its values, some of them ahead of it.

B6: murine CD172a(SIRPα)-Fc-CD40L chimeric protein (Fc fusion)
chain 1: KELKVTQPEKSVSVAAGDSTVLNCTLTSLLPVGPIRWYRGVGPSRLLIYSFAGEYVPRIRNVSDTTKRNNMDFSIRISNVTPADAGIYYCVKFQKGSSEPDTEIQSGGGTEVYVLAKPSPPEVSGPADRGIPDQKVNFTCKSHGFSPRNITLKWFKDGQELHPLETTVNPSGKNVSYNISSTVRVVLNSMDVNSKVICEVAHITLDRSPLRGIANLSNFIRVSPTVKVTQQSPTSMNQVNLTCRAERFYPEDLQLIWLENGNVSRNDTPKNLTKNTDGTYNYTSLFLVNSSAHREDVVFTCQVKHDQQPAITRNHTVLGFAHSSDQGSMQTFPDNNATHNWN
chain 2: HRRLDKVEEEVNLHEDFVFIKKLKRCNKGEGSLSLLNCEEMRRQFEDLVKDITLNKEEKKENSFEMQRGDEDPQIAAHVVSEANSNAASVLQWAKKGYYTMKSNLVMLENGKQLTVKREGLYYVYTQVTFCSNREPSSQRPFIVGLWLKPSSGSERILLKAANTHSSSQLCEQQSVHLGGVFELQAGASVFVNVTEASQVIHRVGFSSFGLLKL

Tests used:
[1] = target: T1, human OX40 expressed on Jurkat cells (Jurkat/hOX40) (human, UniProt P43489 29-277); assay: flow cytometry on Jurkat-hOX40 cells; Jurkat cells without hOX40 as control
T1 construct: whole, on cells
T1 sequence (looked up): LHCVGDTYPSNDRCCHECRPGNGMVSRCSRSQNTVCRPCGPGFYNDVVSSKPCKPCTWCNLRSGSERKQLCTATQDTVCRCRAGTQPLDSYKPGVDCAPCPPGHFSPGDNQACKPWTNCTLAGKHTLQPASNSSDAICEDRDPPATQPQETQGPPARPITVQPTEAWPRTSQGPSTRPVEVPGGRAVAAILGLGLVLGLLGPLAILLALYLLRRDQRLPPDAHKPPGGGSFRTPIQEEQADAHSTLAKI

[2] = target: T2, OX40 receptor used in the functional ELISA of Example 12 (human, UniProt P43489 29-216); assay: functional ELISA on human OX40; x axis is dilution (1 to 16), concentration not given
T2 construct: also called hOX40
T2 sequence (looked up): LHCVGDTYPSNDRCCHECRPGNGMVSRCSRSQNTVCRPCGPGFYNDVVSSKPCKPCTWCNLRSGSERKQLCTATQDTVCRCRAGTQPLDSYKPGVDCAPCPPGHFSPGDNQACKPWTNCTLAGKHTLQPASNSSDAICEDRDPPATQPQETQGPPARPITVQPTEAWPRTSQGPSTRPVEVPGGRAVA

[3] = target: plate-bound recombinant human PD-L1 protein (human, UniProt Q9NZQ7 19-238, limits assumed); assay: functional ELISA on human PD-L1; x axis is dilution (1 to 16), concentration not given
plate-bound recombinant human PD-L1 protein, sequence (Q9NZQ7 19-238 limits assumed): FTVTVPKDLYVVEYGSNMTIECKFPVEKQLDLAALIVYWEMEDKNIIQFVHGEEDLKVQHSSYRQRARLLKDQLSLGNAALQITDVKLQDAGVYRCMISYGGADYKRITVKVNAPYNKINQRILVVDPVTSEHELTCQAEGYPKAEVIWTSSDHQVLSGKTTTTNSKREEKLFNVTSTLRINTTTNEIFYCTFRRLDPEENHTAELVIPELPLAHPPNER

TNFRSF4 = target: T3, TNFRSF4; assay: microarray containing about 6,000 human membrane proteins
T3 construct: also called TNF Receptor Superfamily Member 4; canonical isoform
T3 chain: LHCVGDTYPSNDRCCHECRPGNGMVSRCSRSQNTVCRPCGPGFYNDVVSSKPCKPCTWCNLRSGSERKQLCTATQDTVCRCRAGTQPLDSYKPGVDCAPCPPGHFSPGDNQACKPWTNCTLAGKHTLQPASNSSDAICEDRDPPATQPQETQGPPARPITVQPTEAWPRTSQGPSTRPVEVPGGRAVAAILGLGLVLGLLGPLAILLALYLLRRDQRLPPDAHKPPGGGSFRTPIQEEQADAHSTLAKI

Galectin-1 = Galectin-1 (human, UniProt P09382 2-135, limits assumed); assay: as above
Galectin-1, sequence (P09382 2-135 limits assumed): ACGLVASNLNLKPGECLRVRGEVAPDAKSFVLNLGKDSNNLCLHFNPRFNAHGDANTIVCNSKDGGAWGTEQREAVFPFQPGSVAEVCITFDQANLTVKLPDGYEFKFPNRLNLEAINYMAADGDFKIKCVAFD

[4] = target: B6; assay: SPR, binding to mCD40
[5] = target: T4, recombinant human OX40-His protein (human, UniProt P43489 29-216); assay: SPR, His-tagged target on ProteOn HTG tris-NTA chip, positive control
T4 construct: also called polyhistidine-tagged recombinant human OX40; hOX40; not shown: polyhistidine tag
T4 sequence (looked up): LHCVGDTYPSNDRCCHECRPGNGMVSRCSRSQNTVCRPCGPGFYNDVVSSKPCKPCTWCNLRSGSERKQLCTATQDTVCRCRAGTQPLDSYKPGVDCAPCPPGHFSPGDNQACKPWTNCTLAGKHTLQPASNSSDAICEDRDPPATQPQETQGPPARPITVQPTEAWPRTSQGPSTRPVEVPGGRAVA
Text: Specifically, polyhistidine-tagged versions of recombinant human PD-L1, PD-L2, or OX40 was bound to ProteOn HTG tris-NTA chips (BIORAD).

[6] = target: T2, OX40 receptor used in the functional …; assay: ELISA, plate-bound OX40, detection with αOX40L and HRP detection antibody; fold dilution series
FcRn-His (Example 11) = target: T5, FcRn-His (Example 11); assay: SPR (BioRad ProteOn XPR 360), His-tagged target chip-bound
T5 construct: A beta-2-microglobulin chain is not mentioned

[7] = target: T6, murine CD40 expressed on CHOK1 cells (CHOK1/mCD40) (murine, UniProt P27512 20-289); assay: flow cytometry on CHOK1/mCD40 cells
T6 construct: whole, on cells
T6 sequence (P27512 20-289): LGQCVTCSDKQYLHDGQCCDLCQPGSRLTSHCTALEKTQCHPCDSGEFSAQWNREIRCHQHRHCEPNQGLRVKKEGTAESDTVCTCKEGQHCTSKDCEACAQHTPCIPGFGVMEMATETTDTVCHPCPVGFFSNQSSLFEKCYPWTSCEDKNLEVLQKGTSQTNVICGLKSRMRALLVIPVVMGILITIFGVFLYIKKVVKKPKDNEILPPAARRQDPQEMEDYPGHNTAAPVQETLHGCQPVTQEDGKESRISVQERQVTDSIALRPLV

B3: recombinant murine CD40 protein (receptor, UniProt P27512 24-193, looked up)
chain: VTCSDKQYLHDGQCCDLCQPGSRLTSHCTALEKTQCHPCDSGEFSAQWNREIRCHQHRHCEPNQGLRVKKEGTAESDTVCTCKEGQHCTSKDCEACAQHTPCIPGFGVMEMATETTDTVCHPCPVGFFSNQSSLFEKCYPWTSCEDKNLEVLQKGTSQTNVICGLKSRMR
notes: also called mCD40
- koff [4]: 5.51e-05 s⁻¹
- kon [4]: 72800 M⁻¹ s⁻¹

B4: recombinant human OX40L-Fc (Fc fusion, UniProt P23510 51-183, looked up)
chain: QVSHRYPRIQSIKVQFTEYKKEKGFILTSQKEDEIMKVQNNSVIINCDGFYLISLKGYFSQEVNISLHYQKDEEPLFQLKKVRSVNSLMVASLTYKDKVYLNVTTDNTSLDDFHVNGGELILIHQNPGEFCVL
notes: Positive control in SPR; not shown: Fc not described
- binding result [5]: binds
- binding result [6]: binds

Binder: B6
- EC50 [7]: 20.2 nM

Continued, values first:

- binding result [1]: binds
- binding result [2]: binds
- binding result [3]: binds
B1: human PD-1-Fc-OX40L chimeric protein treated with the deglycosylase PNGase F (Fc fusion)
chain: LDSPDRPWNPPTFSPALLVVTEGDNATFTCSFSNTSESFVLNWYRMSPSNQTDKLAAFPEDRSQPGQDCRFRVTQLPNGRDFHMSVVRARRNDSGTYLCGAISLAPKAQIKESLRAELRVTERRAEVPTAHPSPSPRPAGQFQSKYGPPCPSCPAPEFLGGPSVFLFPPKPKDTLMISRTPEVTCVVVDVSQEDPEVQFNWYVDGVEVHNAKTKPREEQFNSTYRVVSVLTVLHQDWLSGKEYKCKVSSKGLPSSIEKTISNATGQPREPQVYTLPPSQEEMTKNQVSLTCLVKGFYPSDIAVEWESNGQPENNYKTTPPVLDSDGSFFLYSRLTVDKSSWQEGNVFSCSVMHEALHNHYTQKSLSLSLGKIEGRMDQVSHRYPRIQSIKVQFTEYKKEKGFILTSQKEDEIMKVQNNSVIINCDGFYLISLKGYFSQEVNISLHYQKDEEPLFQLKKVRSVNSLMVASLTYKDKVYLNVTTDNTSLDDFHVNGGELILIHQNPGEFCVL
modifications: N-glycans removed with PNGase F
notes: also called deglycosylated hPD-1-Fc-OX40L

- binding result (TNFRSF4): binds
- binding result (Galectin-1): binds
B2: human PD-1-Fc-OX40L chimeric protein (Fc fusion)
chain: LDSPDRPWNPPTFSPALLVVTEGDNATFTCSFSNTSESFVLNWYRMSPSNQTDKLAAFPEDRSQPGQDCRFRVTQLPNGRDFHMSVVRARRNDSGTYLCGAISLAPKAQIKESLRAELRVTERRAEVPTAHPSPSPRPAGQFQSKYGPPCPSCPAPEFLGGPSVFLFPPKPKDTLMISRTPEVTCVVVDVSQEDPEVQFNWYVDGVEVHNAKTKPREEQFNSTYRVVSVLTVLHQDWLSGKEYKCKVSSKGLPSSIEKTISNATGQPREPQVYTLPPSQEEMTKNQVSLTCLVKGFYPSDIAVEWESNGQPENNYKTTPPVLDSDGSFFLYSRLTVDKSSWQEGNVFSCSVMHEALHNHYTQKSLSLSLGKIEGRMDQVSHRYPRIQSIKVQFTEYKKEKGFILTSQKEDEIMKVQNNSVIINCDGFYLISLKGYFSQEVNISLHYQKDEEPLFQLKKVRSVNSLMVASLTYKDKVYLNVTTDNTSLDDFHVNGGELILIHQNPGEFCVL
notes: Glycosylated; also called hPD-1-Fc-OX40L

- Kd (FcRn-His (Example 11)): 55.6 nM
- koff (FcRn-His (Example 11)): 0.00262 s⁻¹
- kon (FcRn-His (Example 11)): 47200 M⁻¹ s⁻¹
B5: murine PD-1-Fc-OX40L chimeric protein (Fc fusion)
chain 1: LEVPNGPWRSLTFYPAWLTVSEGANATFTCSLSNWSEDLMLNWNRLSPSNQTEKQAAFCNGLSQPVQDARFQIIQLPNRHDFHMNILDTRRNDSGIYLCGAISLHPKAKIEESPGAELVVTERILETSTRYPSPSPKPEGRFQGM
chain 2: SSSPAKDPPIQRLRGAVTRCEDGQLFISSYKNEYQTMEVQNNSVVIKCDGLYIIYLKGSFFQEVKIDLHFREDHNPISIPMLNDGRRIVFTVVASLAFKDKVYLTVNAPDTLCEHLQINDGELIVVQLTPGYCAPEGSYHSTVNQVPL
